Numbering of substitutions follows the chain as printed.
T1: Ins 5 type mutant CALR protein on UT-7/TPO CALR Ins 5 cells (UniProt P27797 18-417)
T1 sequence (looked up): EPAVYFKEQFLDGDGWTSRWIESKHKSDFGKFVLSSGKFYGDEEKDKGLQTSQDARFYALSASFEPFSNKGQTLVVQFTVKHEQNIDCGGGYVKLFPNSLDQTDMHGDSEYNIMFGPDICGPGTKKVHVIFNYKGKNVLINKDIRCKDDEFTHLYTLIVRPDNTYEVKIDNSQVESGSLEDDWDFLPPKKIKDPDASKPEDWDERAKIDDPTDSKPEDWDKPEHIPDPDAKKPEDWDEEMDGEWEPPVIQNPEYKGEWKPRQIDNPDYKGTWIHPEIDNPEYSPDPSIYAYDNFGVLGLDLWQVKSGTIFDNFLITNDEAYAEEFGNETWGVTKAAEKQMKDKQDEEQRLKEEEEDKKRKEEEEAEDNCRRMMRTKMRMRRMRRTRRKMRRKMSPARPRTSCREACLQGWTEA

T2: protein having an Fc region and a His-tag added to the N-terminus of SEQ ID NO: 1
T2 construct: also called mutant CALR protein (antigen of the BLItz measurement); not shown: Fc region and His-tag at the N-terminus
T2 chain: RRMMRTKMRMRRM

B1: Antibody 25 (bispecific antibody)
heavy: QVQLQQSGAELVKPGSSVKISCKASGYTFTRNFIHWIKQQPGNGLEWIGWIFPGDGDTEYNQKFNGKATLTADKSSSTAYMQLSSLTSEDSAVYFCARGNYNYEYFDYWGQGVMVTVSSASTKGPSVFPLAPSSKSTSGGTAALGCLVKDYFPEPVTVSWNSGALTSGVHTFPAVLQSSGLYSLSSVVTVPSSSLGTQTYICNVNHKPSNTKVDKRVEPKSCAAAGGGQPREPQVYTLPPSREEMTKNQVSLTCLVKGFYPSDIAVEWESNGQPENNYKTTPPVLDSDGSFFLYSKLTVDKSRWQQGNVFSCSVMHEALHNHYTQKSLSLSPGK
light: QVQLVQSGGGVVQPGRSLRLSCKASGYTFTRYTMHWVRQAPGKGLEWIGYINPSRGYTNYNQKVKDRFTISRDNSKNTAFLQMDSLRPEDTGVYFCARYYDDHYSLDYWGQGTPVTVSSGGGGSGGGGSGGGGSDIQMTQSPSSLSASVGDRVTITCSASSSVSYMNWYQQTPGKAPKRWIYDTSKLASGVPSRFSGSGSGTDYTFTISSLQPEDIATYYCQQWSSNPFTFGQGTKLQITRGGGGSDIQMTQSPASLSASLGETVSIECLASEDIYSYLAWYQQKPGKSPQLLIFAANRLQDGVPSRFSGSGSGTQFSLKISGMQPEDEGDYFCLQGSKFPYTFGPGTKLELNRTVAAPSVFIFPPSDEQLKSGTASVVCLLNNFYPREAKVQWKVDNALQSGNSQESVTEQDSKDSTYSLSSTLTLSKADYEKHKVYACEVTHQGLSSPVTKSFNRGEC
B2: Antibody 16 (bispecific antibody)
heavy: QVQLQQSGAELVKPGSSVKISCKASGYTFTRNFIHWIKQQPGNGLEWIGWIFPGDGDTEYNQKFNGKATLTADKSSSTAYMQLSSLTSEDSAVYFCARGNYNYEYFDYWGQGVMVTVSSASTKGPSVFPLAPSSKSTSGGTAALGCLVKDYFPEPVTVSWNSGALTSGVHTFPAVLQSSGLYSLSSVVTVPSSSLGTQTYICNVNHKPSNTKVDKRVEPKSCGGGGSQVQLVQSGGGVVQPGRSLRLSCKASGYTFTRYTMHWVRQAPGKGLEWIGYINPSRGYTNYNQKVKDRFTISRDNSKNTAFLQMDSLRPEDTGVYFCARYYDDHYSLDYWGQGTPVTVSSGGGGSGGGGSGGGGSDIQMTQSPSSLSASVGDRVTITCSASSSVSYMNWYQQTPGKAPKRWIYDTSKLASGVPSRFSGSGSGTDYTFTISSLQPEDIATYYCQQWSSNPFTFGQGTKLQITRHHHHHH
light: DIQMTQSPASLSASLGETVSIECLASEDIYSYLAWYQQKPGKSPQLLIFAANRLQDGVPSRFSGSGSGTQFSLKISGMQPEDEGDYFCLQGSKFPYTFGPGTKLELNRTVAAPSVFIFPPSDEQLKSGTASVVCLLNNFYPREAKVQWKVDNALQSGNSQESVTEQDSKDSTYSLSSTLTLSKADYEKHKVYACEVTHQGLSSPVTKSFNRGEC
notes: B3 Fab with hOKT3 scFv fused to the Fab heavy chain C-terminus
B3: Antibody 17 (bispecific antibody)
heavy: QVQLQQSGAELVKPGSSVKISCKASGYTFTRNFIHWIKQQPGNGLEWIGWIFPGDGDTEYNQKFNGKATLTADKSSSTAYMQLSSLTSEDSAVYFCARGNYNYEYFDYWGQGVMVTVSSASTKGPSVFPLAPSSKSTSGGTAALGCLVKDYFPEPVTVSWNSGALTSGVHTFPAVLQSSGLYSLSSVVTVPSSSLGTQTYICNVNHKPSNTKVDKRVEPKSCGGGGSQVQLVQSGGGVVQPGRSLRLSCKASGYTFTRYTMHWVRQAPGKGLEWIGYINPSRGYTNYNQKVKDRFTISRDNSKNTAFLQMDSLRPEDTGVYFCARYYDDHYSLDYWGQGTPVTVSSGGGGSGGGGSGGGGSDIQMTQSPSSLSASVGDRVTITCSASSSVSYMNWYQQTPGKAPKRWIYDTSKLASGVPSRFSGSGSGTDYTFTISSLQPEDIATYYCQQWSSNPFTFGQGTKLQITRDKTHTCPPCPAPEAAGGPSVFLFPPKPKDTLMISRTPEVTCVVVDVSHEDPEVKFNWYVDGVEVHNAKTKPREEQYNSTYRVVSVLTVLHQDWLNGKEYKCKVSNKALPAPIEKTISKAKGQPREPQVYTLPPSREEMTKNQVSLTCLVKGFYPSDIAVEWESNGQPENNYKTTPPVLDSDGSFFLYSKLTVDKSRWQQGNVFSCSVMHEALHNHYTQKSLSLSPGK
light: B2 light
notes: B3 Fab heavy chain, hOKT3 scFv and Fc in one polypeptide, with the B3 light chain
B4: Antibody 11 (bispecific antibody)
chain: QVQLVQSGGGVVQPGRSLRLSCKASGYTFTRYTMHWVRQAPGKGLEWIGYINPSRGYTNYNQKVKDRFTISRDNSKNTAFLQMDSLRPEDTGVYFCARYYDDHYSLDYWGQGTPVTVSSGGGGSGGGGSGGGGSDIQMTQSPSSLSASVGDRVTITCSASSSVSYMNWYQQTPGKAPKRWIYDTSKLASGVPSRFSGSGSGTDYTFTISSLQPEDIATYYCQQWSSNPFTFGQGTKLQITRGGGGSQVQLQQSGAELVKPGSSVKISCKASGYTFTRNFIHWIKQQPGNGLEWIGWIFPGDGDTEYNQKFNGKATLTADKSSSTAYMQLSSLTSEDSAVYFCARGNYNYEYFDYWGQGVMVTVSSGGGGSGGGGSGGGGSDIQMTQSPASLSASLGETVSIECLASEDIYSYLAWYQQKPGKSPQLLIFAANRLQDGVPSRFSGSGSGTQFSLKISGMQPEDEGDYFCLQGSKFPYTFGPGTKLELNHHHHHH
B5: Antibody 58 (bispecific antibody)
chain 1: not shown
chain 2: DIQMTQSPSFVSASVGDRVTITCLASEDIYSYLAWYQQKPGKAPKLLIFAANRLQDGVPSRFSGGGSGTGFTLTISSLQPEDFATYFCLQGSKFPYTFGQGTKLEINRTVAAPSVFIFPPSDEQLKSGTASVVCLLNNFYPREAKVQWKVDNALQSGNSQESVTEQDSKDSTYSLSSTLTLSKADYEKHKVYACEVTHQGLSSPVTKSFNRGEC
B6: Antibody 82 (bispecific antibody)
chain 1: not shown
chain 2: B5 chain 2 with F10S, V11L, D56S, G65S, G70D, F87Y, Q100P, L104V, E105D, N107K
B7: Antibody 59 (bispecific antibody)
chain 1: not shown
chain 2: B5 chain 2
B8: Antibody 75 (bispecific antibody)
chain 1: not shown
chain 2: B5 chain 2 with D56S, N107K
B9: Antibody 83 (bispecific antibody)
chain 1: not shown
chain 2: B5 chain 2 with F10S, V11L, D56S, G65S, G70D, F87Y, Q100P, L104V, E105D, N107K
B10: Antibody 78 (bispecific antibody)
chain 1: not shown
chain 2: B5 chain 2 with D56S, N107K
B11: Antibody 85 (bispecific antibody)
chain 1: not shown
chain 2: B5 chain 2 with F10S, V11L, D56S, G65S, G70D, F87Y, Q100P, L104V, E105D, N107K
B12: Antibody 72 (bispecific antibody)
chain 1: not shown
chain 2: B5 chain 2 with D56S
B13: Antibody 84 (bispecific antibody)
chain 1: not shown
chain 2: B5 chain 2 with F10S, V11L, D56S, G65S, G70D, F87Y, Q100P, L104V, E105D, N107K
B14: Antibody 68 (bispecific antibody)
chain 1: not shown
chain 2: B5 chain 2 with D56S
B15: Antibody 71 (bispecific antibody)
chain 1: not shown
chain 2: B5 chain 2 with D56S
B16: Antibody 63 (bispecific antibody)
chain 1: not shown
chain 2: B5 chain 2
B17: Antibody 74 (bispecific antibody)
chain 1: not shown
chain 2: B5 chain 2 with D56S, N107K
B18: Antibody 66 (bispecific antibody)
chain 1: not shown
chain 2: B5 chain 2
B19: Antibody 64 (bispecific antibody)
chain 1: not shown
chain 2: B5 chain 2
B20: Antibody 80 (bispecific antibody)
chain 1: not shown
chain 2: B5 chain 2 with F10S, V11L, G65S, G70D, F87Y, Q100P, L104V, E105D, N107K
B21: Antibody 70 (bispecific antibody)
chain 1: not shown
chain 2: B5 chain 2 with D56S
B22: Antibody 77 (bispecific antibody)
chain 1: not shown
chain 2: B5 chain 2 with D56S, N107K
B23: Antibody 67 (bispecific antibody)
chain 1: not shown
chain 2: B5 chain 2
B24: Antibody 69 (bispecific antibody)
chain 1: not shown
chain 2: B5 chain 2 with D56S
B25: Antibody 61 (bispecific antibody)
chain 1: not shown
chain 2: B5 chain 2
B26: Antibody 65 (bispecific antibody)
chain 1: not shown
chain 2: B5 chain 2
B27: Antibody 76 (bispecific antibody)
chain 1: not shown
chain 2: B5 chain 2 with D56S, N107K
B28: Antibody 60 (bispecific antibody)
chain 1: not shown
chain 2: B5 chain 2

The binders below were run against T1, Ins 5 type mutant CALR protein on … (assay: cell-based or functional assay).

Row | Binder | EC50 of cytotoxic activity (calcein release, T-LAK effector cells) [pM]
1 | B1 | 56
2 | B2 | 334
3 | B3 | 46
4 | B4 | 1260

Molecular target: T1, Ins 5 type mutant CALR protein on …
Test: cell-based or functional assay
Remark: another data set of the same source

Row | Binder | EC50 of cytotoxic activity (pM)
5 | B5 | 1530
6 | B6 | 22
7 | B7 | 469
8 | B8 | 77
9 | B9 | 110
10 | B10 | 63
11 | B11 | 389
12 | B12 | 93
13 | B13 | 277
14 | B14 | 27
15 | B15 | 448
16 | B16 | 197
17 | B17 | 31
18 | B18 | 115
19 | B19 | 829
20 | B20 | 28
21 | B21 | 507
22 | B22 | 129
23 | B23 | 5900
24 | B24 | 162
25 | B25 | 9760
26 | B26 | 397
27 | B27 | 300
28 | B28 | 77

Molecular target: T2, protein having an Fc region and a …
Test: BLItz biolayer interferometry, Fc/His-SEQ ID NO: 1 protein on the biosensor
Experimental: As another method, measurements were performed using the molecular interaction analysis system BLItz (ForteBio), which applies biolayer interferometry […]. Specifically, a protein having an Fc region and a His-tag added to the N-terminus of SEQ ID NO: 1 was immobilized at a concentration of 0.1 mg/mL using the Anti-Penta-HIS or ProteinA biosensor (ForteBio). Subsequently, the antibodies 1 to 114 made were prepared at a concentration of 500, 100, and 50 nM and reacted to acquire the dissociation constant.

Row | Kd [pM] | Binder
29 | < 1 | B5
30 | < 1 | B6
31 | < 1 | B7
32 | < 1 | B8
33 | < 1 | B9
34 | < 1 | B10
35 | < 1 | B11
36 | < 1 | B12
37 | < 1 | B13
38 | < 1 | B14
39 | 554 | B15
40 | 262 | B16
41 | < 1 | B17
42 | < 1 | B18
43 | < 1 | B19
44 | < 1 | B20
45 | < 1 | B21
46 | < 1 | B22
47 | < 1 | B23
48 | < 1 | B24
49 | < 1 | B25
50 | < 1 | B26
51 | < 1 | B27
52 | < 1 | B28
53 | 2830 | B2
54 | < 1 | B3
